The values that follow come from publication PMC5159498, “IQGAP1 Interaction with RHO Family Proteins Revisited” (The Journal of Biological Chemistry, 2016).

Holding throughout (settings): both partners purified
Assay [1] concerns the target T1, IQGAP1 GRD1-RGCT wild type (aa 877-1558) (human, UniProt P46940 877-1558).
T1 construct: human IQGAP1, GRD and RGCT domains, lacks the last 99 amino acids, aa 877-1558; also called GRD1-RGCT^WT; IQGAP1^877-1558
T1 sequence (looked up): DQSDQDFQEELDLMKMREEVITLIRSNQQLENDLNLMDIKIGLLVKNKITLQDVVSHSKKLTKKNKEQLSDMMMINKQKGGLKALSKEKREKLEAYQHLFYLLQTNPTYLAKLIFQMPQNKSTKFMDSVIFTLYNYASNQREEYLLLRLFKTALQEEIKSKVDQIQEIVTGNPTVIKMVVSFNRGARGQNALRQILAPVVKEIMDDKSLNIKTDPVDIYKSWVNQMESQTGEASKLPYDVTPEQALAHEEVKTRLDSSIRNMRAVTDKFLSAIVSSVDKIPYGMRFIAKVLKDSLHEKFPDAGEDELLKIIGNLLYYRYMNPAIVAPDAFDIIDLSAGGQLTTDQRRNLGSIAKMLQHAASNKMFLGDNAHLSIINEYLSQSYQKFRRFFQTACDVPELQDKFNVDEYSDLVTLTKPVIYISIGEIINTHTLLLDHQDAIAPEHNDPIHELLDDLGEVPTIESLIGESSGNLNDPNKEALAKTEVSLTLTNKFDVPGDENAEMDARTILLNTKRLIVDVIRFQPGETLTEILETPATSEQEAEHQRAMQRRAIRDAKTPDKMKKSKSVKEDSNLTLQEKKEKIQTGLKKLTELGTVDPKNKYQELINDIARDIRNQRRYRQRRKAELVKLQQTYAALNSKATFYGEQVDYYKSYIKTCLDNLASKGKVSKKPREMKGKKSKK
Briefly: stopped-flow fluorometry; tGppNHp (tamra-GppNHp)-bound CDC42 or CDC42 Q61L (0.2 μM) rapidly mixed with IQGAP1 variant (2-10 μM GRD1-CT for Q61L); Kd = koff/kon; 30 mM Tris-HCl pH 7.5, 10 mM KH2PO4/K2HPO4, 5 mM MgCl2, 3 mM DTT.

Assay [2] addresses T1, IQGAP1 GRD1-RGCT wild type (aa 877-1558). Briefly: stopped-flow fluorometry; mGppNHp-bound RHO protein (0.2 μM) rapidly mixed with IQGAP1 variant (2 μM, or 2-12 μM for kon); koff by displacement with 10 μM non-fluorescent GppNHp-bound GTPase; Kd = koff/kon; 30 mM Tris-HCl pH 7.5, 10 mM KH2PO4/K2HPO4, 5 mM MgCl2, 3 mM DTT.
The target of assay [3] is T2, IQGAP1 GRD1-RGCT S1443E (aa 877-1558) (human, UniProt P46940 877-1558, S1443E).
T2 construct: human IQGAP1 aa 877-1558 with the phosphomimetic mutation S1443E (printed as S1143E in the methods, S1443E everywhere else), from the vector pET46 EkLIC; source: E. coli (pLysS BL21(DE3), CodonPlusRIL or BL21(Rosetta)), purified (Ni-NTA, gel filtration)
T2 sequence (looked up): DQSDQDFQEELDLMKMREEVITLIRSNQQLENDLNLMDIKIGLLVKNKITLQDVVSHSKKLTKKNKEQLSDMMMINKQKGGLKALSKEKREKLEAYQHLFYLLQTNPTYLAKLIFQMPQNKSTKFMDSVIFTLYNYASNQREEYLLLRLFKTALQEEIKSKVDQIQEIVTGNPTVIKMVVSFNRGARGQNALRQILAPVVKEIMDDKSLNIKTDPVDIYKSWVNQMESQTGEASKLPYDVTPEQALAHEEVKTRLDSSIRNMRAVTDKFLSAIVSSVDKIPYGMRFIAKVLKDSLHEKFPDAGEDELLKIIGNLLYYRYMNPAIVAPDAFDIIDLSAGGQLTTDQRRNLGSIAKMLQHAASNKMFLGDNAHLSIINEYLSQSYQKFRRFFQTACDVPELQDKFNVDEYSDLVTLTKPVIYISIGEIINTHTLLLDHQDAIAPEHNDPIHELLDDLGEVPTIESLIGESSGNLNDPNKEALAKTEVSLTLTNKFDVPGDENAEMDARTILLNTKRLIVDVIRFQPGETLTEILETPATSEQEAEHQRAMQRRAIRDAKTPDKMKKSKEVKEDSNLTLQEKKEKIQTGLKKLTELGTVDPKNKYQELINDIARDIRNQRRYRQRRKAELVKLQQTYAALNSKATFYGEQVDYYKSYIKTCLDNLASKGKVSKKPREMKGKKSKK
The assay is described as above.

B1: CDC42 (aa 1-178) (domain or fragment)
chain: not shown
notes: human CDC42, C-terminally truncated, aa 1-178; Loaded non-covalently with mGppNHp, tGppNHp, mGDP or non-fluorescent GppNHp; the nucleotide is named in the format of each assay; also called CDC42^WT; CDC42-mGppNHp
The Kd is the concentration at which binding is half-saturated. Low values mean tighter binding, high ones weaker binding. For the molecule B1, the dissociation constant (Kd) is 1450 nM in assay [1], 2720 nM in assay [2] and 7030 nM in assay [3].
